# Experimental data published in patent US20080242590A1, “New Method 706” (ASTRAZENECA AB, priority 2007, published 2008).
# B1: mFc-Nep: mouse version of the Fc-Nep, SEQ ID NO 14 (protein, listed as Mus musculus)
# chain: METDTLLLWVLLLWVPGSTGDVPRDCGCKPCICTVPPVSSVFIFPPKPKDVLTITLTPKVTCVVVAISKDDPEVQFSWFVDDVEVHTAQTQPREEQFASTFRSVSELPIMHQDWLNGKEFKCRVNSAAFPAPIEKTISKTKGRPKAPQVYTIPPPKEQMAKDKVSLTCMITDFFPEDITVEWQWNGQPAENYKNTQPIMNTNGSYFVYSKLNVQKSNWEAGNTFTCSVLHEGLHNHHTEKSLSHSPGKYDDGICKSSDCIKSAARLIQNMDASVEPCTDFFKYACGGWLKRNVIPETSSRYSNFDILRDELEVILKDVLQEPKTEDIVAVQKAKTLYRSCINESAIDSRGGQPLLKLLPDIYGWPVASDNWDQTYGTSWTAEKSIAQLNSKYGKKVLINFFVGTDDKNSTQHIIHFDQPRLGLPSRDYYECTGIYKEACTAYVDFMISVARLIRQEQSLPIDENQLSLEMNKVMELEKEIANATTKPEDRNDPMLLYNKMTLAKLQNNFSLEVNGKSFSWSNFTNEIMSTVNINIQNEEEVVVYAPEYLTKLKPILTKYSPRDLQNLMSWRFIMDLVSSLSRNYKESRNAFRKALYGTTSETATWRRCANYVNGNMENAVGRLYVEAAFAGESKHVVEDLIAQIREVFIQTLDDLTWMDAETKKKAEEKALAIKERIGYPDDIISNENKLNNEYLELNYREDEYFENIIQNLKFSQSKQLKKLREKVDKDEWISGAAVVNAFYSSGRNQIVFPAGILQPPFFSAQQSNSLNYGGIGMVIGHEITHGFDDNGRNFNKDGDLVDWWTQQSANNFKDQSQCMVYQYGNFSWDLAGGQHLNGINTLGENIADNGGIGQAYRAYQNYVKKNGEEKLLPGLDLNHKQLFFLNFAQVWCGTYRPEYAVNSIKTDVHSPGNFRIIGTLQNSAEFADAFHCRKNSYMNPERKCRVW
# Tests used:
# [1] = Plasma exposure in C57BL/6 mice (Example 26); type: in vivo; conditions: 25 mg/kg single injection
# Method: (§1) 21-23 weeks old female APPSWE-tg mice and 24 weeks old female C57BL/6 mice (6 mice/group) received vehicle or mFc-Nep at 5 or 25 mg/kg as a single intravenous injection and Aβ40 was analysed at different time points after injection (between 1.5-336 hours, i.e., up to 2 weeks). M-550426 was administrated per orally at 300 μmol/kg 3 hours before termination. For both mouse models, APPSWE-tg and C57BL/6, a positive control and blank groups were included. The following groups were included for the APPSWE-tg mice: 25 mg/kg: 1.5, 72, 168 and 336 hours; 5 mg/kg): 336 hours (2 weeks). For C57BL/6 mice: 25 mg/kg: 168 and 336 hours; 5 mg/kg): 1.5, 168 and 336 hours. […] Blood collection and plasma processing were basically as described in Example 25 The analysis of mouse Aβ40 levels in plasma of C57BL6 mice was as described in Example 25 The analysis of human Aβ40 and Aβ42 levels in plasma of APPSWE-tg mice was as described in Example 25 (as described in the last APP-tg study).
# mouse Aβ40 = assay: Mouse Aβ40 in plasma, time-response after single i.v. dose (Example 26); type: in vivo, C57BL/6 mice; conditions: 25 mg/kg single injection, 2 weeks (336 hours)
# Description: (§2) The objective of this study was to evaluate the time-response relationship of the mouse version of the Fc-Nep (mFc-Nep, SEQ ID NO 14) in plasma of female APPSWE-tg mice and C57BL/6 mice after a single dose. The specific purpose is to find out how long the reducing effect of mFc-Nep on Aβ stays in the plasma, and to correlate the effect to the level of exposure of test compound in plasma. The γ-secretase inhibitor M-550426 is included as a positive compound.
# (§3) 21-23 weeks old female APPSWE-tg mice and 24 weeks old female C57BL/6 mice (6 mice/group) received vehicle or mFc-Nep at 5 or 25 mg/kg as a single intravenous injection and Aβ40 was analysed at different time points after injection (between 1.5-336 hours, i.e., up to 2 weeks). M-550426 was administrated per orally at 300 μmol/kg 3 hours before termination. For both mouse models, APPSWE-tg and C57BL/6, a positive control and blank groups were included. The following groups were included for the APPSWE-tg mice: 25 mg/kg: 1.5, 72, 168 and 336 hours; 5 mg/kg): 336 hours (2 weeks). For C57BL/6 mice: 25 mg/kg: 168 and 336 hours; 5 mg/kg): 1.5, 168 and 336 hours. […]
# amyloid β 1-40 [2] = assay: Degradation of Aβ 1-40 in human plasma pool (Example 28); type: biochemical; conditions: room temperature, 1 hour
# Method: (§4) Blood from twelve individuals (6 females and 6 males) were collected into pre-chilled heparin-plasma tubes at the healthcare centre (AstraZeneca) at three different time points. Plasma was prepared by centrifugation at 2500×g for 20 min at 4° C. Plasma samples were collected and transferred to pre-chilled polypropylene tubes and immediately frozen and stored at −70° C. prior to use. Plasma was thawed and pooled from 12 individuals just before the experiment. Aβ 1-40 and 1-42 in plasma pool was degraded by human Fc-Nep or mouse Fc-Nep with corresponding vehicles (50 mM Tris-HCl, 150 mM NaCl pH 7.5). The following final concentrations of the Fc-Nep constructs were used, 100, 32, 10, 3.2, 1, 0.3, 0.1 and […] and the degradation occurred at room temperature for 1 hour while shaking on an orbital shaker. The enzymatic reaction was stopped by adding Phosphoramidone (10 μM final concentration). Concentration of amyloid β 1-40 in human plasma pool was measured using ELISA kit (Biosource; KHB3481) according to the manufacturers instructions.
# Aβ 1-42 [3] = assay: Degradation of Aβ 1-42 in APPswe-tg mouse plasma pool (Example 28); type: biochemical; conditions: room temperature, 1 hour
# Method: Mouse plasma collected from 9 animals was stored at −70° C. Plasma was thawed and pooled just before the experiment. Aβ 1-40 and 1-42 in plasma pool was degraded by human Fc-Nep or mouse Fc-Nep with corresponding vehicles (50 mM Tris-HCl, 150 mM NaCl pH 7.5). The following final concentrations of the Fc-Nep constructs were used, 100, 32, 10, 3.2, 1, 0.3, 0.1 and […] and the degradation occurred at room temperature for 1 hour while shaking on an orbital shaker. The enzymatic reaction was stopped by adding Phosphoramidone (10 μM final concentration).
# After degradation, a final concentration of 4.7 mM EDTA was added to the tg-mouse plasma tubes and the plasma samples were diluted 3 times in sample diluent, before the concentration of Aβ42 was analyzed using ELISA kit Innotest® β-Amyloid1-42 (Innogenetics, lot#177462, ref#80177) according to the manufacturers instructions. The highest concentration (100 μg/ml) of human Fc-Nep and mouse Fc-Nep degraded human plasma amyloid β 1-40 by 71% and 77%, respectively and Aβ 1-42 by 34% and 53%, respectively, as compared to plasma without Fc-Nep treatment.
# Aβ 1-42 [4] = assay: Degradation of Aβ 1-42 in human plasma pool (Example 28); type: biochemical; conditions: room temperature, 1 hour
# Method: as §4
# A final concentration of 4.7 mM EDTA was added to the tubes before the concentration of Aβ42 was analyzed using ELISA kit Innotest® β-Amyloid1-42 (Innogenetics, lot#177462, ref#80177) according to the manufacturers instructions.
# [5] = Observations of animal health (Example 26); type: in vivo, APPSWE-tg mice and C57BL/6 mice; conditions: 5 or 25 mg/kg single i.v., up to 336 hours
# Method: as §1
# human Aβ42 = assay: Human Aβ42 in plasma, time-response after single i.v. dose (Example 26); type: in vivo, APPSWE-tg mice; conditions: 25 mg/kg single i.v.
# human Aβ40 = assay: Human Aβ40 in plasma, time-response after single i.v. dose (Example 26); type: in vivo, APPSWE-tg mice; conditions: 25 mg/kg single i.v.
# Description: as §2, §3
# [6] = Plasma exposure in APPSWE-tg mice (Example 26); type: in vivo; conditions: single intravenous injection of 25 mg/kg
# Method: as §1
# amyloid β 1-40 [7] = assay: Degradation of Aβ 1-40 in APPswe-tg mouse plasma pool (Example 28); type: biochemical; conditions: room temperature, 1 hour
# Method: Mouse plasma collected from 9 animals was stored at −70° C. Plasma was thawed and pooled just before the experiment. Aβ 1-40 and 1-42 in plasma pool was degraded by human Fc-Nep or mouse Fc-Nep with corresponding vehicles (50 mM Tris-HCl, 150 mM NaCl pH 7.5). […] The enzymatic reaction was stopped by adding Phosphoramidone (10 μM final concentration).
# After degradation, before concentration of amyloid β 1-40 in tg-mouse plasma pool was measured using ELISA kit (Biosource; KHB3481), the plasma samples were diluted 20 times in standard diluent buffer, according to manufacturers instructions.
# [8] = highest concentration 100 μg/ml
molecule,measurement,setting,value
B1,plasma half-life,[1],long
same,Plasma exposure,[1]; 336 hours,48 µg/mL
same,Reduction of mouse Aβ40 levels in plasma compared to vehicle,mouse Aβ40,73%
same,Degradation of amyloid β 1-40 compared to plasma without treatment,amyloid β 1-40 [2]; [8],71%
same,EC50,amyloid β 1-40 [2],400 nM
same,Degradation of Aβ 1-42 compared to plasma without treatment,Aβ 1-42 [3]; [8],53%
same,EC50,Aβ 1-42 [3],820 nM
same,Degradation of Aβ 1-42 compared to plasma without treatment,Aβ 1-42 [4]; [8],19%
same,EC50,Aβ 1-42 [4],180 nM
same,Observations of the animal health,[5],no overt adverse effects
same,Aβ42 levels compared to vehicle,human Aβ42; 1.5 hours,87%
same,Aβ42 levels compared to vehicle,human Aβ42; two weeks (336 hours),44%
same,Aβ40 levels compared to vehicle,human Aβ40; 1.5 hours,91%
same,Aβ40 levels compared to vehicle,human Aβ40; two weeks (336 hours),58%
same,Plasma exposure,[6]; 1.5 hours,299 µg/mL
same,Plasma exposure,[6]; 336 hours,60 µg/mL
same,Degradation of amyloid β 1-40 compared to plasma without treatment,amyloid β 1-40 [7]; [8],77%
same,EC50,amyloid β 1-40 [7],340 nM
